Among the data in patent publication US20230257453A1 (published 2023) are EC50 values, retold here.

Read-outs that look alike come from different tables or passages of the source.

Common to all, as to test: ELISA
A general note: ELISA stands for enzyme-linked immunosorbent assay.

Test [1] concerns the target T1, denatured human collagen I (UniProt P02452 162-1218; P08123 80-1119).
Test [2] deals with T2, denatured human collagen type IV (UniProt P02462 173-1669; P08572 184-1712).
Test [3] concerns the target T1, denatured human collagen I. This is another data set of the same source.
Test [4] deals with T2, denatured human collagen type IV. This is another data set of the same source.

T1 sequence (P02452 162-1218 A1075T, chain 1 of 2): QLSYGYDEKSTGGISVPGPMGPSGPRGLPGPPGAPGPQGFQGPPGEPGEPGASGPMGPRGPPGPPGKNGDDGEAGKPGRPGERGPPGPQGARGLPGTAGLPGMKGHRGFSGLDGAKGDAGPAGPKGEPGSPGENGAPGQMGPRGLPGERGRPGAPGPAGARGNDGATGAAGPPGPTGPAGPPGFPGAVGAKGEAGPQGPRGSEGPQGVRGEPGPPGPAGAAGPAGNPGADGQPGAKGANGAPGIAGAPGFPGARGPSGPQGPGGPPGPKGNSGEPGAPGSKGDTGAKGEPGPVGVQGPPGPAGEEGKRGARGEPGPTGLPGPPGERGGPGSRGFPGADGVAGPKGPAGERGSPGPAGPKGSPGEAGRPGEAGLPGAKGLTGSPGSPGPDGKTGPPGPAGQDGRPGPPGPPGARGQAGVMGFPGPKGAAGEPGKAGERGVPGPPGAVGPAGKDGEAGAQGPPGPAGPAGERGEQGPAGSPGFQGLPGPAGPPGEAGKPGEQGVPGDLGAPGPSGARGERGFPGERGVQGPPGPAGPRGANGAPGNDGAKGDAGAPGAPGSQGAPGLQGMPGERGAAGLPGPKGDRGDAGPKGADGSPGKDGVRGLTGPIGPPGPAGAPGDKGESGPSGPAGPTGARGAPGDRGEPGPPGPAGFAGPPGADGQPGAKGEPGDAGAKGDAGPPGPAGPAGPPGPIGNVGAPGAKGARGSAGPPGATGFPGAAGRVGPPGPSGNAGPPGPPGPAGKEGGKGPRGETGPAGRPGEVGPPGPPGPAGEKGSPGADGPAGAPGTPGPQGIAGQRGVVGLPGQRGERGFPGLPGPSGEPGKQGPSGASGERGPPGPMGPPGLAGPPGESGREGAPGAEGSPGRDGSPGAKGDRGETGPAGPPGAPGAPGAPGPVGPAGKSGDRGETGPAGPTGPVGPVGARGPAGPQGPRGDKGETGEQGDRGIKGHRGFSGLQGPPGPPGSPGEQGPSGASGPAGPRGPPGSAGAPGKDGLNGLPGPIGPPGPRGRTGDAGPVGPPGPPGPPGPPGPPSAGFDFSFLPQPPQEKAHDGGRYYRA
T1 sequence (P08123 80-1119, chain 2 of 2): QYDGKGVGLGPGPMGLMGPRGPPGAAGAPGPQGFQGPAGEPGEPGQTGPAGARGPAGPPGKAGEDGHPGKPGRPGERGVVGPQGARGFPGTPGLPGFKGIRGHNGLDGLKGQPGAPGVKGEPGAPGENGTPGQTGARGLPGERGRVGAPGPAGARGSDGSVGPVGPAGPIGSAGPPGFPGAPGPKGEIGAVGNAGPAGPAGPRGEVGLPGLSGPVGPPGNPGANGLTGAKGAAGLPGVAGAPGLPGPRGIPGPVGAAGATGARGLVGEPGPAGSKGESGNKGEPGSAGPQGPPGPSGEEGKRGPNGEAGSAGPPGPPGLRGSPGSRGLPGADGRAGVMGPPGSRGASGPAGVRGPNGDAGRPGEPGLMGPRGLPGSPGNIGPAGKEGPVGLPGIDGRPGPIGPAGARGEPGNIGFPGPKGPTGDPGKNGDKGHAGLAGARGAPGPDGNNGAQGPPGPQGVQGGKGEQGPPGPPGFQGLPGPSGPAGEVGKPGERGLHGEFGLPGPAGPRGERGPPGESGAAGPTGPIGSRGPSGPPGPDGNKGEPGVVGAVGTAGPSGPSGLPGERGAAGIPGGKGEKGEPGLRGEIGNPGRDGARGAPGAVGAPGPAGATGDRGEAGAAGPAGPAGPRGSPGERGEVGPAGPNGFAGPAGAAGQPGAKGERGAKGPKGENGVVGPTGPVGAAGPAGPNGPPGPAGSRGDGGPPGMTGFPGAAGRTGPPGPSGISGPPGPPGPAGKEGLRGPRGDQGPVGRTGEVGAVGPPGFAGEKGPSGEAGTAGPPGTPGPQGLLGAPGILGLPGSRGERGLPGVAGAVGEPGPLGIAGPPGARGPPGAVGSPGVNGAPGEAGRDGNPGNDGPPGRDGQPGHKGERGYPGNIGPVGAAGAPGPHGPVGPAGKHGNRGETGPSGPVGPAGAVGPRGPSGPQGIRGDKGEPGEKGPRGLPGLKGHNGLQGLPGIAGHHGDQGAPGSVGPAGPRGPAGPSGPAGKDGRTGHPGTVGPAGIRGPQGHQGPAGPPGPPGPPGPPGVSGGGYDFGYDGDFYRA
T2 sequence (P02462 173-1669, chain 1 of 2): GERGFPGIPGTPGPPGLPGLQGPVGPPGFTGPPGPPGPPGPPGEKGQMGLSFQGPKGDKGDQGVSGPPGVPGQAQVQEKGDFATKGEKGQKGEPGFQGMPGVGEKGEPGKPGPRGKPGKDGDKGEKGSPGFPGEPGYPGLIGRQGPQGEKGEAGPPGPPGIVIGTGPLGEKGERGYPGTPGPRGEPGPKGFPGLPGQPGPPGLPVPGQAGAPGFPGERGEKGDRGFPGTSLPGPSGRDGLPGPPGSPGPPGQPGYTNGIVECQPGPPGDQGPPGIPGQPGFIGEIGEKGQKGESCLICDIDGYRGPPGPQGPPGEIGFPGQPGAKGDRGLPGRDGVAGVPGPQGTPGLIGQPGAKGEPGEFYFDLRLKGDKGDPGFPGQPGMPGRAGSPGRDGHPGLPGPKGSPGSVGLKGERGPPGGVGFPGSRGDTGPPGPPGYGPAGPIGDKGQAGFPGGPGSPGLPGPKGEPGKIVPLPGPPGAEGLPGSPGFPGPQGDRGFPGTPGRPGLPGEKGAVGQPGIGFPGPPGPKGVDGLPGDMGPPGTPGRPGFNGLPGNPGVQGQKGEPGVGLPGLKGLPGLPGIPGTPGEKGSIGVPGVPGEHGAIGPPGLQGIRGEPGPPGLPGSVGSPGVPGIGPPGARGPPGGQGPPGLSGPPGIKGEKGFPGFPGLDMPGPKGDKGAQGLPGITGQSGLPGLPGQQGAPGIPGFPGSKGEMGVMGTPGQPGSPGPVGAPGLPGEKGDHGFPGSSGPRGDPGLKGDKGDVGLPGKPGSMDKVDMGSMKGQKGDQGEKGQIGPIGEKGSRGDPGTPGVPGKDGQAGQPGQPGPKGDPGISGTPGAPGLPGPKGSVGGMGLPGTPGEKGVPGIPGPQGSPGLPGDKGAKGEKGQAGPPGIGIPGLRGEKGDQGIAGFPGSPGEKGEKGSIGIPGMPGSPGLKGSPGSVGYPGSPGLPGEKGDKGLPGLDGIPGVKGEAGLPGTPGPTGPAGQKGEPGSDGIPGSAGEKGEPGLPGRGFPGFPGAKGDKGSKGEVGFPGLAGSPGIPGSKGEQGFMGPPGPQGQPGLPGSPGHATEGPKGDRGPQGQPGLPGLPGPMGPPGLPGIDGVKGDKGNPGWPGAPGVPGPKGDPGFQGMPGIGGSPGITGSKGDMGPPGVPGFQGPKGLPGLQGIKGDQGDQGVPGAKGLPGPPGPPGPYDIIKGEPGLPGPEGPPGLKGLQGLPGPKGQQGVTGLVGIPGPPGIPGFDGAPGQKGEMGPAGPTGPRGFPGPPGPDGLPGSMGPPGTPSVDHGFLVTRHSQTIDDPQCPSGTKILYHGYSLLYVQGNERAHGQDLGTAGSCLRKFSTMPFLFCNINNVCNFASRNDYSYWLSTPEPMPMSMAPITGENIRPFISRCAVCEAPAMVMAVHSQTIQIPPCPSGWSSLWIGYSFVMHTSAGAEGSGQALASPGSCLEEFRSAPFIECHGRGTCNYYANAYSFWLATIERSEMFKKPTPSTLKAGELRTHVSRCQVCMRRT
T2 sequence (P08572 184-1712, chain 2 of 2): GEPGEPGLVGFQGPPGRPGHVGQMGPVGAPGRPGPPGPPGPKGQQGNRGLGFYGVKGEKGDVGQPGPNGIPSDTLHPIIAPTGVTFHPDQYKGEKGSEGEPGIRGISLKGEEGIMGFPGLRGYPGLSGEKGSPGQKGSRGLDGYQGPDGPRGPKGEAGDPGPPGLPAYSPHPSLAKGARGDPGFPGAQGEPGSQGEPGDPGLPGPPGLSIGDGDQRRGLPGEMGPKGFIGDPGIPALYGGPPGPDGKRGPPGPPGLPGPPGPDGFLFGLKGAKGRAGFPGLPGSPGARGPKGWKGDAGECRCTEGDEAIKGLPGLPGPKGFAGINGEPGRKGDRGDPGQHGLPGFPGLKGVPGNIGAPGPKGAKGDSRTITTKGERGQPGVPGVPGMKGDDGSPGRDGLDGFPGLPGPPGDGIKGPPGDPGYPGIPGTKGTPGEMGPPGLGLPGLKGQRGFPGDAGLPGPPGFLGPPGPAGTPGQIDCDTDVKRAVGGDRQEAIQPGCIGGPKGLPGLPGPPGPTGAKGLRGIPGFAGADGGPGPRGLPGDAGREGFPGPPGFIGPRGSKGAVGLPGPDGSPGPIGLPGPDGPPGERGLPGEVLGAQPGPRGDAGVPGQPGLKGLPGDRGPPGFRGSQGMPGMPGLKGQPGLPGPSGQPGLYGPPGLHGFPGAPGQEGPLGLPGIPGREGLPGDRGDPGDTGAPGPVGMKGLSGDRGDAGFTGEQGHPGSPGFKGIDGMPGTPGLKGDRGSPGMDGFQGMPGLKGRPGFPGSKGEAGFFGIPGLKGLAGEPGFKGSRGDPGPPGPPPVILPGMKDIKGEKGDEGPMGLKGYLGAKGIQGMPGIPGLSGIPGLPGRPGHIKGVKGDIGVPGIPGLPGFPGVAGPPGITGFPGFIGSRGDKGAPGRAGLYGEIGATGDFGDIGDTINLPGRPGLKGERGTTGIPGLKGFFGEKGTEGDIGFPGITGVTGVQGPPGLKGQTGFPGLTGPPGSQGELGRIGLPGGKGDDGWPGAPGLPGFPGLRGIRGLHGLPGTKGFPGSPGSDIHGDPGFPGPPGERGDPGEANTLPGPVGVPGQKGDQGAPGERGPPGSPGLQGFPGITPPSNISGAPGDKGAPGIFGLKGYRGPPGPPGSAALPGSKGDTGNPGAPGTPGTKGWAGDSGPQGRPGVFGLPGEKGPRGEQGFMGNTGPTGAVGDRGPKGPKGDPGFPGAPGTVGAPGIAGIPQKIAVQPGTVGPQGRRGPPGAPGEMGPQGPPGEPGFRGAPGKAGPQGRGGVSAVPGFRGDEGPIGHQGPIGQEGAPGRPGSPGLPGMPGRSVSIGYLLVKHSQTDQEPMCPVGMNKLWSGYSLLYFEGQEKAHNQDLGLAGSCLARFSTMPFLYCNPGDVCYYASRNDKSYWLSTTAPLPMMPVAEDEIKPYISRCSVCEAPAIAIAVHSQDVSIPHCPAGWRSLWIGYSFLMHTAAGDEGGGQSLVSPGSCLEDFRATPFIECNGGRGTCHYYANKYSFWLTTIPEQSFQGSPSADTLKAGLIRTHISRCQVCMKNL

B1: P27562716 (antibody, V domains shown)
VH: EVQLVESGGGLVQPGGSLRLSCAASGFTFSTPGMGVWWVRQAPGKGLEWLADIWWDDNKYTNPSLKSRFTISRDNAKNSLYLQMNSLRAEDTAVYYCARRANYGNPYYAQDYWGQGTTVTVSS
VL: DIVMTQTPLSLPVTPGEPASISCRSSQSIVSSWGNTYLEWYLQKPGQSPQLLIYKVSNRFSGVPDRFSGSGSGTDFTLKISRVEAEDVGVYYCFQGSHVPWTFGQGTKVEIKR
The EC50 is the midpoint of the concentration-response curve. A high value points to a need for much substance. For the molecule B1, the results for the EC50 in test [1] and in test [2] were 36.2 nM and 12 nM, respectively.

B2: P27122797 (antibody, V domains shown)
VH: QVTLKESGPALVKPTQTLTLTCTFSGFSLSTSGMGVGWIRQPPGKALEWLADIWWDDNKYANPSLKSRLTISKDTSKNQVVLTMTNMDPVDTATYYCARRANYGNPYYAQDYWGQGTTVTVSS
VL: DIVMTQTPLSLPVTPGEPASISCRSSQSIVHSSGNTYLEWYLQKPGQSPQLLIYKVSNRFSGVPDRFSGSGSGTDFTLKISRVEAEDVGVYYCFQGSHVPWTFGQGTKVEIKR
For the molecule B2, the EC50 in test [1] came to 8570 nM; in test [2], 32.6 nM.

B3: P27532716 (antibody, V domains shown)
VH: EVQLVESGGGLVQPGGSLRLSCAASGFTLSTPGMGVWWVRQAPGKGLEWVADIWWDDNKYTNPSLKSRFTISRDNAKNSLYLQMNSLRAEDTAVYYCARRANYGNPYYAQDYWGQGTTVTVSS
VL: DIVMTQTPLSLPVTPGEPASISCRSSQSIVSSWGNTYLEWYLQKPGQSPQLLIYKVSNRFSGVPDRFSGSGSGTDFTLKISRVEAEDVGVYYCFQGSHVPWTFGQGTKVEIKR
In the case of B3, the EC50 in test [1] turned out to be 18.3 nM; in test [2], 9.01 nM.

B4: P27552716 (antibody, V domains shown)
VH: EVQLVESGGGLVQPGGSLRLSCAASGFTFSTPGMGVWWIRQAPGKGLEWVADIWWDDNKYTNPSLKSRFTISRDNAKNSLYLQMNSLRAEDTAVYYCARRANYGNPYYAQDYWGQGTTVTVSS
VL: DIVMTQTPLSLPVTPGEPASISCRSSQSIVSSWGNTYLEWYLQKPGQSPQLLIYKVSNRFSGVPDRFSGSGSGTDFTLKISRVEAEDVGVYYCFQGSHVPWTFGQGTKVEIKR
With B4, the EC50 is 36.6 nM in test [1] and 12.2 nM in test [2].

B5: P27522716 (antibody, V domains shown)
VH: EVQLVESGGGLVQPGGSLRLSCAASGFSFSTPGMGVWWVRQAPGKGLEWVADIWWDDNKYTNPSLKSRFTISRDNAKNSLYLQMNSLRAEDTAVYYCARRANYGNPYYAQDYWGQGTTVTVSS
VL: DIVMTQTPLSLPVTPGEPASISCRSSQSIVSSWGNTYLEWYLQKPGQSPQLLIYKVSNRFSGVPDRFSGSGSGTDFTLKISRVEAEDVGVYYCFQGSHVPWTFGQGTKVEIKR
B5: the figures for the EC50 in test [1] and in test [2] were 22.1 nM and 16.1 nM, respectively.

B6: P27542716 (antibody, V domains shown)
VH: EVQLVESGGGLVQPGGSLRLSCAASGFSLSTPGMGVWWVRQAPGKGLEWVADIWWDDNKYTNPSLKSRFTISRDNAKNSLYLQMNSLRAEDTAVYYCARRANYGNPYYAQDYWGQGTTVTVSS
VL: DIVMTQTPLSLPVTPGEPASISCRSSQSIVSSWGNTYLEWYLQKPGQSPQLLIYKVSNRFSGVPDRFSGSGSGTDFTLKISRVEAEDVGVYYCFQGSHVPWTFGQGTKVEIKR
Regarding B6, the concentration giving a half-maximal response (EC50) in test [1] was determined as 14.8 nM; in test [2], 6.37 nM.

B7: P27572716 (antibody, V domains shown)
VH: EVQLVESGGGLVQPGGSLRLSCAASGFTFSTPGMGVWWVRQAPGKGLEWVADIWWDDNKYTNPSLKSRLTISRDNAKNSLYLQMNSLRAEDTAVYYCARRANYGNPYYAQDYWGQGTTVTVSS
VL: DIVMTQTPLSLPVTPGEPASISCRSSQSIVSSWGNTYLEWYLQKPGQSPQLLIYKVSNRFSGVPDRFSGSGSGTDFTLKISRVEAEDVGVYYCFQGSHVPWTFGQGTKVEIKR
As for B7, the EC50 came out at 20800 nM in test [1] and 18.8 nM in test [2].

B8: P27622716 (antibody)
chain 1: not shown
chain 2: DIVMTQTPLSLPVTPGEPASISCRSSQSIVSSWGNTYLEWYLQKPGQSPQLLIYKVSNRFSGVPDRFSGSGSGTDFTLKISRVEAEDVGVYYCFQGSHVPWTFGQGTKVEIKRTVAAPSVFIFPPSDEQLKSGTASVVCLLNNFYPREAKVQWKVDNALQSGNSQESVTEQDSKDSTYSLSSTLTLSKADYEKHKVYACEVTHQGLSSPVTKSFNRGEC
Take B8: the EC50 stood at 3.73 nM in test [3] and 4.01 nM in test [2].

B9: P27152797 (antibody)
chain 1: not shown
chain 2: DIVMTQTPLSLPVTPGEPASISCRSSQSIVHSSGNTYLEWYLQKPGQSPQLLIYKVSNRFSGVPDRFSGSGSGTDFTLKISRVEAEDVGVYYCFQGSHVPWTFGQGTKVEIKRTVAAPSVFIFPPSDEQLKSGTASVVCLLNNFYPREAKVQWKVDNALQSGNSQESVTEQDSKDSTYSLSSTLTLSKADYEKHKVYACEVTHQGLSSPVTKSFNRGEC
Turning to B9, the EC50 was determined as 26 nM in test [1] and 9.3 nM in test [2].

B10: P27962798 (antibody)
chain 1: not shown
chain 2: DIVMTQTPLSLPVTPGEPASISCRSSQSIVHSNANTYLEWYLQKPGQSPQLLIYKVSNRFSGVPDRFSGSGSGTDFTLKISRVEAEDVGVYYCFQGSHVPWTFGQGTKVEIKRTVAAPSVFIFPPSDEQLKSGTASVVCLLNNFYPREAKVQWKVDNALQSGNSQESVTEQDSKDSTYSLSSTLTLSKADYEKHKVYACEVTHQGLSSPVTKSFNRGEC
On to B10, for which the EC50 in test [4] is 2.53 nM.

B11: P27202716 (antibody)
chain 1: not shown
chain 2: DIVMTQTPLSLPVTPGEPASISCRSSQSIVSSWGNTYLEWYLQKPGQSPQLLIYKVSNRFSGVPDRFSGSGSGTDFTLKISRVEAEDVGVYYCFQGSHVPWTFGQGTKVEIKRTVAAPSVFIFPPSDEQLKSGTASVVCLLNNFYPREAKVQWKVDNALQSGNSQESVTEQDSKDSTYSLSSTLTLSKADYEKHKVYACEVTHQGLSSPVTKSFNRGEC
In test [4], B11 displayed an EC50 of 3.34 nM.

B12: P27122798 (antibody)
chain 1: not shown
chain 2: DIVMTQTPLSLPVTPGEPASISCRSSQSIVHSNANTYLEWYLQKPGQSPQLLIYKVSNRFSGVPDRFSGSGSGTDFTLKISRVEAEDVGVYYCFQGSHVPWTFGQGTKVEIKRTVAAPSVFIFPPSDEQLKSGTASVVCLLNNFYPREAKVQWKVDNALQSGNSQESVTEQDSKDSTYSLSSTLTLSKADYEKHKVYACEVTHQGLSSPVTKSFNRGEC
As for B12, the results for the EC50 in test [1] and in test [2] were 27.2 nM and 10.8 nM, respectively.

B13: P28612716 (antibody)
chain 1: not shown
chain 2: DIVMTQTPLSLPVTPGEPASISCRSSQSIVSSWGNTYLEWYLQKPGQSPQLLIYKVSNRFSGVPDRFSGSGSGTDFTLKISRVEAEDVGVYYCFQGSHVPWTFGQGTKVEIKRTVAAPSVFIFPPSDEQLKSGTASVVCLLNNFYPREAKVQWKVDNALQSGNSQESVTEQDSKDSTYSLSSTLTLSKADYEKHKVYACEVTHQGLSSPVTKSFNRGEC
For the molecule B13, in test [4], a half-maximal effect (EC50) was put at 2.63 nM.

B14: P27202714 (antibody)
chain 1: not shown
chain 2: DIVMTQTPLSLPVTPGEPASISCRSSQSIVHSQGNTYLEWYLQKPGQSPQLLIYKVSNRFSGVPDRFSGSGSGTDFTLKISRVEAEDVGVYYCFQGSHVPWTFGQGTKVEIKRTVAAPSVFIFPPSDEQLKSGTASVVCLLNNFYPREAKVQWKVDNALQSGNSQESVTEQDSKDSTYSLSSTLTLSKADYEKHKVYACEVTHQGLSSPVTKSFNRGEC
B14 displayed an EC50 in test [4] of 30.4 nM.

B15: P27902713 (antibody)
chain 1: not shown
chain 2: DIVMTQTPLSLPVTPGEPASISCRSSQSIVHSNGNTYLEWYLQKPGQSPQLLIYKVSNRFSGVPDRFSGSGSGTDFTLKISRVEAEDVGVYYCFQGSHVPWTFGQGTKVEIKRTVAAPSVFIFPPSDEQLKSGTASVVCLLNNFYPREAKVQWKVDNALQSGNSQESVTEQDSKDSTYSLSSTLTLSKADYEKHKVYACEVTHQGLSSPVTKSFNRGEC
In test [4], B15 displayed a concentration for a half-maximal effect (EC50) of 57.4 nM.

B16: P27952798 (antibody)
chain 1: not shown
chain 2: DIVMTQTPLSLPVTPGEPASISCRSSQSIVHSNANTYLEWYLQKPGQSPQLLIYKVSNRFSGVPDRFSGSGSGTDFTLKISRVEAEDVGVYYCFQGSHVPWTFGQGTKVEIKRTVAAPSVFIFPPSDEQLKSGTASVVCLLNNFYPREAKVQWKVDNALQSGNSQESVTEQDSKDSTYSLSSTLTLSKADYEKHKVYACEVTHQGLSSPVTKSFNRGEC
With B16, a half-maximal response in test [4] (EC50) required 18.4 nM.

B17: P27922716 (antibody)
chain 1: not shown
chain 2: DIVMTQTPLSLPVTPGEPASISCRSSQSIVSSWGNTYLEWYLQKPGQSPQLLIYKVSNRFSGVPDRFSGSGSGTDFTLKISRVEAEDVGVYYCFQGSHVPWTFGQGTKVEIKRTVAAPSVFIFPPSDEQLKSGTASVVCLLNNFYPREAKVQWKVDNALQSGNSQESVTEQDSKDSTYSLSSTLTLSKADYEKHKVYACEVTHQGLSSPVTKSFNRGEC
Molecule B17 gave an EC50 in test [4] of 4.5 nM.

B18: P27962797 (antibody)
chain 1: not shown
chain 2: DIVMTQTPLSLPVTPGEPASISCRSSQSIVHSSGNTYLEWYLQKPGQSPQLLIYKVSNRFSGVPDRFSGSGSGTDFTLKISRVEAEDVGVYYCFQGSHVPWTFGQGTKVEIKRTVAAPSVFIFPPSDEQLKSGTASVVCLLNNFYPREAKVQWKVDNALQSGNSQESVTEQDSKDSTYSLSSTLTLSKADYEKHKVYACEVTHQGLSSPVTKSFNRGEC
The molecule B18 yielded a concentration for a half-maximal effect (EC50) in test [4] of 6.48 nM.

B19: P27912716 (antibody)
chain 1: not shown
chain 2: DIVMTQTPLSLPVTPGEPASISCRSSQSIVSSWGNTYLEWYLQKPGQSPQLLIYKVSNRFSGVPDRFSGSGSGTDFTLKISRVEAEDVGVYYCFQGSHVPWTFGQGTKVEIKRTVAAPSVFIFPPSDEQLKSGTASVVCLLNNFYPREAKVQWKVDNALQSGNSQESVTEQDSKDSTYSLSSTLTLSKADYEKHKVYACEVTHQGLSSPVTKSFNRGEC
In test [4], B19 registered an EC50 of 4.97 nM.

B20: P27202713 (antibody)
chain 1: not shown
chain 2: DIVMTQTPLSLPVTPGEPASISCRSSQSIVHSNGNTYLEWYLQKPGQSPQLLIYKVSNRFSGVPDRFSGSGSGTDFTLKISRVEAEDVGVYYCFQGSHVPWTFGQGTKVEIKRTVAAPSVFIFPPSDEQLKSGTASVVCLLNNFYPREAKVQWKVDNALQSGNSQESVTEQDSKDSTYSLSSTLTLSKADYEKHKVYACEVTHQGLSSPVTKSFNRGEC
The molecule B20 displayed an EC50 in test [4] of 7.41 nM.
